Data as given in PMC6973309.

Target: human CX3CR1 (human) (UniProt P49238)
Sequence (P49238 whole entry): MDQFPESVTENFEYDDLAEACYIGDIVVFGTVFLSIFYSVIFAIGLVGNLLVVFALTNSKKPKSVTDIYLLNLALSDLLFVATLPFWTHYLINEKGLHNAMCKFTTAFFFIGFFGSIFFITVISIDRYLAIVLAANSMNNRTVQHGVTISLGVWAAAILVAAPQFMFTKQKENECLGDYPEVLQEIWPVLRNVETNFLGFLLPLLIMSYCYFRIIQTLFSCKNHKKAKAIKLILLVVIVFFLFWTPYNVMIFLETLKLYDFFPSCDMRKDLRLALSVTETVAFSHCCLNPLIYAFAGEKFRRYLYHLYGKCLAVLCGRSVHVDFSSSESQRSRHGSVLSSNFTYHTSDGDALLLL

EC50 in the calcium flux assay: 4.8 nM
B1: mouse fractalkine (ligand)
chain: QHLGMTKCEIMCDKMTSRIPVALLIRYQLNQESCGKRAIVLETTQHRRFCADPKEKWVQDAMKHLDHQAAALTKNGGKFEKRVDNVTPGITLATRGLSPSALTKPESATLEDLALELTTISQEARGTMGTSQEPPAAVTGSSLSTSEAQDAGLTAKPQSIGSFEAADISTTVWPSPAVYQSGSSSWAEEKATESPSTTAPSPQVSTTSPSTPEENVGSEGQPPWVQGQDLSPEKSLGSEEINPVHTDNFQERGPGNTVHPSVAPISSEETPSPELVASGSQAPKIEEPIHATADPQKLSVLITPVPDTQAATRRQAVGLLAFLGLLFCLGVAMFAYQSLQGCPRKMAGEMVEGLRYVPRSCGSNSYVLVPV
